# Test results published in the RNAGym collection of RNA variant scans (doi:10.7554/elife.90254).
# B1: LINE1-full (parent)
# chain: UACGUAGGUGGUUUUCCCCUGAUAGUGCUAAGGGGGCCUGGAAGUUUGGACUGGGCAGAGCUCAACACAGCGUGGCAAAGUGGCUGUGGCUAGACUGCCUCUCUGGAUUCCUCGUCACUCAGCAGGGCAUCUCUGAGAGAAAUGCC
# Variants of: B1
# Test: self-cleavage, relative activity (ratio to wild type); higher = more cleavage; in vitro, sequencing; the parent is a self-cleaving ribozyme
row,Variant,self-cleavage
1,U14C A69C,0.08
2,U14C A69U,0.07
3,U14C A77U,1.19
4,U14C A78U,1.44
5,U14C A79G,0.84
6,U14C A94U,0.29
7,U14C A107G,1.22
8,U14C A107U,1.2
9,U14C A117U,1.3
10,U14C A124G,1.09
11,U14C A124U,1.25
12,U14C A129G,1.02
13,U14C A136C,1.36
14,U14C A136G,1.45
15,U14C A136U,1.42
16,U14C A138C,1.56
17,U14C A138G,1.23
18,U14C A138U,0.98
19,U14C A140G,0.87
20,U14C A140U,1.22
21,U14C A141G,1.03
22,U14C A142C,1.87
23,U14C C28A,0.74
24,U14C C28U,0.8

row,Variant,self-cleavage
1,U14C C37G,0.56
2,U14C C37U,0.95
3,U14C C56U,0.18
4,U14C C63A,0.06
5,U14C C66U,0.03
6,U14C C76A,1.31
7,U14C C90A,0
8,U14C C95U,0.21
9,U14C C98U,0.07
10,U14C C99U,0.75
11,U14C C111A,1.2
12,U14C C111U,1.14
13,U14C C116U,1.14
14,U14C C120U,1.48
15,U14C G21A,1.39
16,U14C G27A,1.15
17,U14C G32A,0.99
18,U14C G33A,1.02
19,U14C G33U,1.14
20,U14C G35A,1.22
21,U14C G35C,1.46
22,U14C G35U,1.02
23,U14C G36C,1.41
24,U14C G40A,0.85

row,Variant,self-cleavage
1,U14C G40U,1.06
2,U14C G48U,1.15
3,U14C G49U,1.21
4,U14C G60A,0.11
5,U14C G70A,0.26
6,U14C G72A,1.23
7,U14C G75A,0.82
8,U14C G82A,1.35
9,U14C G88U,0.06
10,U14C G89U,0.05
11,U14C G93U,0.06
12,U14C G105C,1.84
13,U14C G106U,0.66
14,U14C G114A,1.06
15,U14C G125A,1.46
16,U14C G137A,0.82
17,U14C G144A,1.13
18,U14C U15A,0.93
19,U14C U15C,1.27
20,U14C U20A,0.89
21,U14C U20G,0.9
22,U14C U26C,1.12
23,U14C U26G,1.61
24,U14C U29G,0.26

row,Variant,self-cleavage
1,U14C U39A,1.12
2,U14C U39C,1
3,U14C U45G,1.34
4,U14C U47A,1.17
5,U14C U52C,1.21
6,U14C U52G,1.51
7,U14C U62A,0.1
8,U14C U62C,0.09
9,U14C U73G,1.05
10,U14C U81C,1.43
11,U14C U85A,0.08
12,U14C U85C,0.23
13,U14C U91A,0.91
14,U14C U96C,0.18
15,U14C U102A,1.67
16,U14C U104A,1.04
17,U14C U108A,0.98
18,U14C U109A,1.18
19,U14C U109G,0.65
20,U14C U112G,1.75
21,U14C U115A,1.45
22,U14C U119C,1.29
23,U14C U130A,1.47
24,U14C U130C,1.5

row,Variant,self-cleavage
1,U14C U132A,0.87
2,U14C U132C,1.43
3,U14C U134A,0.84
4,U14C U134C,1.34
5,U14C U143A,0.99
6,U14C U143C,1.02
7,U14C U143G,1.93
8,U14G A24G,0.79
9,U14G A50U,1.14
10,U14G A67U,0.39
11,U14G A69G,0.42
12,U14G A78G,1.23
13,U14G A117G,0.39
14,U14G A117U,0.78
15,U14G A121U,0.95
16,U14G A129G,0.84
17,U14G A129U,0.89
18,U14G A141G,0.89
19,U14G U26A,1.18
20,U14G U29C,1.6
21,U14G U39C,1.25
22,U14G U52A,1.08
23,U14G U81A,1.91
24,U14G U85A,0.28

row,Variant,self-cleavage
1,U14G U87C,0.41
2,U14G U132C,1.13
3,U15A A22C,0.85
4,U15A A22G,0.79
5,U15A A22U,1.16
6,U15A A30U,0.85
7,U15A A57U,0.14
8,U15A A59G,0.08
9,U15A A64G,0.08
10,U15A A64U,0.29
11,U15A A65U,0.29
12,U15A A67G,0.41
13,U15A A69G,0.22
14,U15A A77C,0.7
15,U15A A79U,1.09
16,U15A A92G,0.25
17,U15A A107U,1.06
18,U15A A121C,0.82
19,U15A A121U,1.35
20,U15A A124G,0.76
21,U15A A124U,0.85
22,U15A A136G,1.26
23,U15A A138G,1.45
24,U15A A138U,1.07

row,Variant,self-cleavage
1,U15A A140G,1.11
2,U15A A140U,0.61
3,U15A A141G,1.35
4,U15A A141U,1.07
5,U15A A142C,1.71
6,U15A C19A,0.79
7,U15A C19U,0.93
8,U15A C28A,1.16
9,U15A C38A,0.77
10,U15A C84U,0.08
11,U15A C95U,0.41
12,U15A C103A,1.27
13,U15A C110A,1.16
14,U15A C111U,1.37
15,U15A C118U,0.49
16,U15A C123G,0.92
17,U15A C128U,0.76
18,U15A C133U,1.31
19,U15A G35C,1.26
20,U15A G36U,1.31
21,U15A G44A,1.32
22,U15A G49A,0.74
23,U15A G55C,0.15
24,U15A G86A,0.07

row,Variant,self-cleavage
1,U15A G125U,0.89
2,U15A G127U,1.87
3,U15A U20C,1.31
4,U15A U23A,0.76
5,U15A U23C,1.17
6,U15A U26A,0.5
7,U15A U29A,0.38
8,U15A U39A,0.85
9,U15A U45C,0.66
10,U15A U46A,0.71
11,U15A U46C,0.76
12,U15A U47A,0.76
13,U15A U47G,0
14,U15A U62A,0.04
15,U15A U73C,1.06
16,U15A U81A,1.56
17,U15A U81C,1.14
18,U15A U85A,0.11
19,U15A U85G,0.28
20,U15A U87A,0.08
21,U15A U87C,0.28
22,U15A U91A,0.77
23,U15A U96A,0.09
24,U15A U96C,0.41

row,Variant,self-cleavage
1,U15A U100A,0.59
2,U15A U100G,1.07
3,U15A U108C,1.49
4,U15A U109A,0.47
5,U15A U109C,0.86
6,U15A U115A,1.07
7,U15A U130G,1.09
8,U15A U132A,0.45
9,U15A U134A,0.87
10,U15A U143C,1.26
11,U15C A24C,1.84
12,U15C A24G,1.13
13,U15C A24U,1.08
14,U15C A30G,1.14
15,U15C A31G,0.75
16,U15C A31U,0.95
17,U15C A42G,1.43
18,U15C A42U,1.38
19,U15C A43G,1.4
20,U15C A43U,1.09
21,U15C A50U,1
22,U15C A64U,0.66
23,U15C A65C,0.09
24,U15C A65G,0.1

row,Variant,self-cleavage
1,U15C A67C,0.07
2,U15C A67U,0.17
3,U15C A69G,0.47
4,U15C A79C,1.84
5,U15C A79G,1.18
6,U15C A92G,0.21
7,U15C A94G,0.34
8,U15C A107U,1.2
9,U15C A117C,2.07
10,U15C A117G,1.83
11,U15C A121G,1.34
12,U15C A121U,1.79
13,U15C A129U,1.06
14,U15C A136C,1.99
15,U15C A136G,1.52
16,U15C A140C,1.12
17,U15C A140G,1.59
18,U15C A141G,1.51
19,U15C C16U,1.02
20,U15C C17A,1.28
21,U15C C19U,1.08
22,U15C C51U,1.26
23,U15C C63U,0.43
24,U15C C68U,0.19

row,Variant,self-cleavage
1,U15C C84G,0.21
2,U15C C90A,0.02
3,U15C C101G,1.31
4,U15C C103U,1.53
5,U15C C111U,1.47
6,U15C C116U,0.62
7,U15C C120A,1.31
8,U15C C123U,1.72
9,U15C C131A,1.74
10,U15C C131U,2.51
11,U15C C145U,1.47
12,U15C C146G,1.45
13,U15C G21A,1.11
14,U15C G27A,1.1
15,U15C G32U,1.15
16,U15C G34A,0.78
17,U15C G34U,1.65
18,U15C G40A,0.3
19,U15C G41U,0.57
20,U15C G48A,1.41
21,U15C G49U,0.94
22,U15C G53A,1.34
23,U15C G54A,0.74
24,U15C G58A,0.11

row,Variant,self-cleavage
1,U15C G60A,0.04
2,U15C G80A,1.82
3,U15C G86A,0.06
4,U15C G88A,0.06
5,U15C G93A,0.07
6,U15C G97A,0.06
7,U15C G106A,1.26
8,U15C G106C,1.03
9,U15C G126A,1.41
10,U15C G135U,1.21
11,U15C G144U,1.61
12,U15C U20A,1.12
13,U15C U20C,1.33
14,U15C U20G,0.52
15,U15C U23G,1.31
16,U15C U26C,1.33
17,U15C U39C,1.51
18,U15C U46A,1.41
19,U15C U46G,1.15
20,U15C U47A,1.42
21,U15C U47C,1.64
22,U15C U62G,0.15
23,U15C U73A,1.68
24,U15C U73C,1.8

row,Variant,self-cleavage
1,U15C U81A,2.14
2,U15C U81C,1.43
3,U15C U85A,0.1
4,U15C U87C,0.33
5,U15C U96A,0.1
6,U15C U96C,0.23
7,U15C U100A,0.62
8,U15C U100G,1.84
9,U15C U102A,0.19
10,U15C U102G,0.8
11,U15C U104G,1.29
12,U15C U112A,1.64
13,U15C U112C,1.37
14,U15C U115C,1.68
15,U15C U119A,1.5
16,U15C U130C,1.19
17,U15C U132A,1.89
18,U15C U132C,1.47
19,U15C U134C,1.43
20,U15C U143C,1.29
21,U15G A31G,0.79
22,U15G A50C,1.37
23,U15G A65G,0.1
24,U15G A78U,2.03

row,Variant,self-cleavage
1,U15G A124U,0.58
2,U15G A138G,0.53
3,U15G A141G,1
4,U15G G126C,1.19
5,U15G U29C,1.05
6,U15G U39A,1.19
7,U15G U46C,0.59
8,U15G U47A,1.16
9,U15G U96A,0.16
10,U15G U96C,0
11,U15G U104C,0.89
12,U15G U108C,1.06
13,U15G U119A,1.01
14,U15G U132C,1.81
15,C16A,0.96
16,C16A A67G,1.02
17,C16A A121G,0.53
18,C16A A136G,0.57
19,C16A A138G,1.65
20,C16A A142G,0.86
21,C16A U20A,1.64
22,C16A U46C,0.91
